Source: EP2246362B1, “Polymer conjugates of mutated neublastin” (Biogen Idec MA Inc., priority 2003, dated 2004)
Like-named read-outs stand apart in the source and are kept apart here.

Legend:
[1] = biological target: T1, c-Ret on NB41A3-mRL3 cells (UniProt P35546 29-1115, limits assumed); assay: cell-based or functional assay
[2] = biological target: T1, c-Ret on NB41A3-mRL3 cells; assay: cell-based or functional assay; remark: listed apart in the source
[3] = biological target: T1, c-Ret on NB41A3-mRL3 cells; assay: cell-based or functional assay; remark: listed apart in the source
[4] = design: species or system mice; details: mouse, in vivo, sc
Description: The pharmokinetic properties of various PEGylated and non-PEGylated mutated neublastin products in rat and mouse models were examined (see Table 8 for summary of results). The analysis of the PEGylated […] samples are complicated by the presence of adducts comprising 2, 3 and 4 PEGs per molecule, which each will display a different PK profile. In early PK studies, mice were used to facilitate screening through a variety of candidates and routes of administration. […] This difference in bioavailability was particularly pronounced following i.p. administration. Levels in mice reached 1600 ng/mL after 7 hr and remained at 400 ng/mL after 24 hr. In contrast, rat levels were constant at 100 ng/mL for 4-48 hr. Two surprising and unexpected results emerged from the PK studies summarized in Table 8: 1) PEGylation of the amino-terminal amino acids of non-glycosylated neublastin was not sufficient to increase serum exposure substantially, and 2) PEGylation of the amino-terminal amino acid(s) of neublastin together with modification (e.g. PEGylation or glycosylation) of amino acid 95 was sufficient to increase serum exposure substantially.

[5] = biological target: T2, c-Ret (Mus musculus, UniProt O35118+P35546); assay: Kinase Receptor Activation (KIRA) ELISA: neublastin dependent phosphorylation of c-Ret in NB41A3-mRL3 cells; type: cell-based, murine; details: for activity / potency in the KIRA ELISA (in words): compared with wild-type NBN113 / mature form; for KIRA: ~Max Efficacy vs WT: relative to wild-type, NB41A3-mRL3 cells
T2 construct: NB41A3-mRL3 cells, an adherent murine neuroblastoma cell line which expresses Ret and GFRα3; endogenous in cells; host or cells: NB41A3-mRL3 (murine neuroblastoma)
T2 sequence (P35546 29-1115): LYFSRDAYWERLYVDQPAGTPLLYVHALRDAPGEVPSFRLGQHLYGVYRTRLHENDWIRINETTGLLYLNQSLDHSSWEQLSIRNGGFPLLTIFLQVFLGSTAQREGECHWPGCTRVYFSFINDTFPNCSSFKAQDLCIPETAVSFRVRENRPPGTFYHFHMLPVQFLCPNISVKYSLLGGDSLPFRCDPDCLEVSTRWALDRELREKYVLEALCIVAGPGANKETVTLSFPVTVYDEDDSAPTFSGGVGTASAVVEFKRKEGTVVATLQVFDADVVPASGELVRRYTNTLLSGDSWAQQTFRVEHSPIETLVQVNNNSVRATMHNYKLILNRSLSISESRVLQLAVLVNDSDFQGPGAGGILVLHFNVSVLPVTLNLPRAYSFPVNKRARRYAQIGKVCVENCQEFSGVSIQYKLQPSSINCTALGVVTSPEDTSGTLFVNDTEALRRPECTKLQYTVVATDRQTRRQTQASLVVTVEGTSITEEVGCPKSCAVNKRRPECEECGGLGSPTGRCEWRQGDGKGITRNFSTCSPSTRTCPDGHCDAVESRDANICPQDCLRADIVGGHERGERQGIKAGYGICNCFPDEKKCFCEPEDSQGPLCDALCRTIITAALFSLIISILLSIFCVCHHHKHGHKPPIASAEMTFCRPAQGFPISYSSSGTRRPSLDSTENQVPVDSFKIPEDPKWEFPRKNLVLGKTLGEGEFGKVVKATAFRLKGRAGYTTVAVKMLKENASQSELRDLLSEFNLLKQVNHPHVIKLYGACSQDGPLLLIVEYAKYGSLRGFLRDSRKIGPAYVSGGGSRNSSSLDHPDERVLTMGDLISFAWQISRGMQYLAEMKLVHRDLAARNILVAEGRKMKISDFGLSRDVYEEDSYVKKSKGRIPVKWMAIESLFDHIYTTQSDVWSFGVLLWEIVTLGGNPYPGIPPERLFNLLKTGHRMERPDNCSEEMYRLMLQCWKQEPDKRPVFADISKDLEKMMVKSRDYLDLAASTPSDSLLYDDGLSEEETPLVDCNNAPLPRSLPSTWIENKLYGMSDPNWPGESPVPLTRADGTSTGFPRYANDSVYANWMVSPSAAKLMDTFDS
T2 sequence (O35118 29-397): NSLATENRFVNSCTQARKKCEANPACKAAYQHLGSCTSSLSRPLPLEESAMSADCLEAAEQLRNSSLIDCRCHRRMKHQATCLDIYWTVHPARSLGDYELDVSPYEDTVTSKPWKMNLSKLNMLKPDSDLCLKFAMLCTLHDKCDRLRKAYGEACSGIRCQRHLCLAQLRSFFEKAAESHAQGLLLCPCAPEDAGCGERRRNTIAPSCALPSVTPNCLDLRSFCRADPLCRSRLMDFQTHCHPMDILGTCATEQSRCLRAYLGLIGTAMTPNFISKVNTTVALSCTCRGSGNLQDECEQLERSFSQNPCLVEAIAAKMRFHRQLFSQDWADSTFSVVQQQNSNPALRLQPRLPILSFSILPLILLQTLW
Procedure: The potency of PEGylated mutated rat neublastin was measured using neublastin dependent activation/ phosphorylation of c-Ret as a reporter for neublastin activity in an ELISA that was specific for the presence of phosphorylated RET. NB41A3-mRL3 cells, an adherent murine neuroblastoma cell line which expresses Ret and GFRα3, were plated at 2 x 10^5 cells per well in 24-well plates in Dulbecco's modified eagle medium (DMEM), supplemented with 10 % fetal bovine serum, and cultured for 18 h at 37 °C and 5 % CO2.
The cells were washed with PBS, and treated with serial dilutions of neublastin in 0.25 mL of DMEM for 10 min at 37°C and 5 % CO2. Each sample was analyzed in duplicate. The cells were washed with 1 mL of PBS, and lysed for 1h at 4 °C with 0.30 mL of 10 mM Tris HC1, pH 8.0, 0.5 % Nonidet P40, 0.2 % sodium deoxycholate, 50 mM NaF, 0.1 mM Na3 VO4,1 mM phenylmethylsulfonyl fluoride with gently rocking the plates. The lysates were further agitated by repeated pipetting and 0.25 mL of sample was transferred to a 96-well ELISA plate that had been coated with 5 µg/mL of anti-Ret mAb (AA.GE7.3) in 50 mM carbonate buffer, pH 9.6 at 4°C for 18 h, and blocked at room temperature for one hour with block buffer (20 mM Tris HC1 pH 7.5, 150 mM NaCl, 0.1% Tween-20 (TBST) containing 1 % normal mouse serum and 3 % bovine serum albumin).
After a 2 h incubation at room temperature, the wells were washed 6-times with TBST. Phosphorylated Ret was detected by incubating the wells at room temperature for 2 h with 2 µg/mL of horseradish peroxidase (HRP)-conjugated anti-phosphotyrosine 4G10 antibody in block buffer, washing 6-times with TBST, and measuring HRP activity at 450 nm with a colorometric detection reagent. The absorbance values from wells treated with lysate or with lysis buffer were measured and the background corrected signal was plotted as a function of the concentration of neublastin present in the activation mixture.
Neublastin activity was determined by its ability to stimulate c-Ret phosphorylation in NB41A3-mRL3 cells using the KIRA ELISA described in Example 3. Phosphorylated Ret was detected by incubating (2 hours) the captured receptor with HRP-conjugated phosphotyrosine antibody (4G10; 0.2 µg per well). Following the incubation, the wells were washed six times with TBST, and the HRP activity detected at 450 nm with a colorimetric assay. The absorbance values from wells treated with lysate or with lysis buffer alone were measured, background corrected, and the data plotted as a function of the concentration of neublastin present in the activation mixture.

[6] = estimated EC50, NB41A3-mRL3 cells

T1 sequence (P35546 29-1115 limits assumed): as the sequence (P35546 29-1115) above

Molecule | KIRA: ∼EC50 [2] | KIRA: ∼Max Efficacy vs WT [2] | Exposure in Mice After s.c. Administration [4] | further results
2 X 20 kDa PEG-NBN104 (CHO) (from UniProt Q5T4W7 117-220) (ligand) | – | – | – | KIRA: ∼EC50 [1]: 1 nM; KIRA: ∼Max Efficacy vs WT [1]: 105%
BSA-conjugated neublastin (monosubstituted product) (from UniProt P02769 25-607) | – | – | – | IC50 in the KIRA ELISA [1]: 3 to 6 nM
1 X 20 kDa PEG-NBN104 (CHO) (from UniProt Q5T4W7 117-220) (ligand) | – | – | – | KIRA: ∼EC50 [1]: 0.3 nM; KIRA: ∼Max Efficacy vs WT [1]: 110%
NBN104 (CHO) (from UniProt Q5T4W7 117-220) (ligand) | – | – | – | KIRA: ∼EC50 [1]: 0.7 nM; KIRA: ∼Max Efficacy vs WT [1]: 90%
2 X 10 kDa PEG-NBN (ligand, 10 kDa PEG on amino acid 1 of each chain (PEGylated amino acids 1,1)) AGTRSSRARATDARGCRLRSQLVPVSALGLGHSSDELIRFRFCSGSCRRARSPHDLSLASLLGAGALRSPPGSRPISQPCCRPTRYEAVSFMDVNSTWRTVDHLSATACGCLG | ~0.2 nM | ~72% | – | –
1 X 20 kDa Branched PEG-NBN (ligand, one 20 kDa branched PEG per dimer, on amino acid 1 of one chain (PEGylated amino acids: 1)) AGTRSSRARATDARGCRLRSQLVPVSALGLGHSSDELIRFRFCSGSCRRARSPHDLSLASLLGAGALRSPPGSRPISQPCCRPTRYEAVSFMDVNSTWRTVDHLSATACGCLG | ~0.2 nM | ~83% | – | –
3 X 10 kDa PEG-WT/N95K-NBN106 (ligand, 10 kDa PEG on the amino-terminal amino acid and on Lys95; 10 kDa PEG on the amino-terminal amino acid) chain 1: ARATDARGCRLRSQLVPVSALGLGHSSDELIRFRFCSGSCRRARSPHDLSLASLLGAGALRSPPGSRPISQPCCRPTRYEAVSFMDVNSTWRTVDHLSATACGCLG chain 2: ARATDARGCRLRSQLVPVSALGLGHSSDELIRFRFCSGSCRRARSPHDLSLASLLGAGALRSPPGSRPISQPCCRPTRYEAVSFMDVKSTWRTVDHLSATACGCLG | ~0.7 nM | ~115% | – | –
3 X 10 kDa PEG NBN106-N95K (ligand, three 10 kDa PEG per dimer: on both amino-terminal amino acids and on one Lys95 (PEGylated amino acids 1,1,95)) ARATDARGCRLRSQLVPVSALGLGHSSDELIRFRFCSGSCRRARSPHDLSLASLLGAGALRSPPGSRPISQPCCRPTRYEAVSFMDVKSTWRTVDHLSATACGCLG | ~0.8 nM | ~100% | – | –
2 X 20 kDa PEG-NBN (ligand, 20 kDa PEG on amino acid 1 of each chain (cell printed '1,1 1')) AGTRSSRARATDARGCRLRSQLVPVSALGLGHSSDELIRFRFCSGSCRRARSPHDLSLASLLGAGALRSPPGSRPISQPCCRPTRYEAVSFMDVNSTWRTVDHLSATACGCLG | ~0.6 nM | ~80% | – | –
rat mutated neublastin NBN106-N95K (non-PEGylated) (ligand) ARATDARGCRLRSQLVPVSALGLGHSSDELIRFRFCSGSCRRARSPHDLSLASLLGAGALRSPPGSRPISQPCCRPTRYEAVSFMDVKSTWRTVDHLSATACGCLG | – | – | – | specific activity in the KIRA ELISA [3]: ~10 nM
2 X 5 kDa PEG-NBN (ligand, 5 kDa PEG on amino acid 1 of each chain (PEGylated amino acids 1,1)) AGTRSSRARATDARGCRLRSQLVPVSALGLGHSSDELIRFRFCSGSCRRARSPHDLSLASLLGAGALRSPPGSRPISQPCCRPTRYEAVSFMDVNSTWRTVDHLSATACGCLG | ~0.2 nM | ~105% | – | –
4 X 5 kDa PEG NBN106-N95K (ligand, 5 kDa PEG on the amino-terminal amino acid and on Lys95 of each chain (PEGylated amino acids 1,1,95,95)) ARATDARGCRLRSQLVPVSALGLGHSSDELIRFRFCSGSCRRARSPHDLSLASLLGAGALRSPPGSRPISQPCCRPTRYEAVSFMDVKSTWRTVDHLSATACGCLG | ~1 nM | ~80% | – | –
3 X 10 kDa PEG NBN106-N95K: homodimer of NBN106-N95K conjugated to three 10 kDa PEG moieties (conjugate) ARATDARGCRLRSQLVPVSALGLGHSSDELIRFRFCSGSCRRARSPHDLSLASLLGAGALRSPPGSRPISQPCCRPTRYEAVSFMDVKSTWRTVDHLSATACGCLG | – | – | ++ | activity / potency in the KIRA ELISA (in words) [5]: fully active
4 X 10 kDa PEG NHN106-N95K: homodimer of NBN106-N95K conjugated to four 10 kDa PEG moieties (conjugate) ARATDARGCRLRSQLVPVSALGLGHSSDELIRFRFCSGSCRRARSPHDLSLASLLGAGALRSPPGSRPISQPCCRPTRYEAVSFMDVKSTWRTVDHLSATACGCLG | – | – | ++ | fold less potent than non-mutated (wild-type) NBN113 in activating Ret [5]: approximately 10 fold; activity / potency in the KIRA ELISA (in words) [5]: reduced potency
1 X 20 kDa PEG-NBN104 (CHO): CHO derived NBN104 dimer glycosylated at 95,95 with one 20 kDa PEG at amino acid 1 (conjugate) AAGARGCRLRSQLVPVRALGLGHRSDELVRFRFCSGSCRRARSPHDLSLASLLGAGALRPPPGSRPVSQPCCRPTRYEAVSFMDVNSTWRTVDRLSATACGCLG | – | – | ++ | serum exposure after s.c. administration (in words) [4]: high serum exposure; EC50 [5, 6]: 0.3 nM; KIRA: ~Max Efficacy vs WT [5]: 110%
2 X 20 kDa PEG-NBN: E. coli derived NBN113 dimer with two 20 kDa PEGs at amino acids 1,1 (conjugate) AGTRSSRARATDARGCRLRSQLVPVSALGLGHSSDELIRFRFCSGSCRRARSPHDLSLASLLGAGALRSPPGSRPISQPCCRPTRYEAVSFMDVNSTWRTVDHLSATACGCLG | – | – | + | serum exposure after s.c. administration (in words) [4]: low-to-moderate serum exposure
2 X 20 kDa PEG-NBN104 (CHO): CHO derived NBN104 dimer glycosylated at 95,95 with two 20 kDa PEGs at amino acids 1,1 (conjugate) AAGARGCRLRSQLVPVRALGLGHRSDELVRFRFCSGSCRRARSPHDLSLASLLGAGALRPPPGSRPVSQPCCRPTRYEAVSFMDVNSTWRTVDRLSATACGCLG | – | – | ++ | serum exposure after s.c. administration (in words) [4]: high serum exposure; EC50 [5, 6]: 1 nM; KIRA: ~Max Efficacy vs WT [5]: 105%
3 X 10 kDa PEG-WT/ N95K-NBN106: wild-type/N95K NBN106 heterodimer with three 10 kDa PEGs at amino acids 1,1,95 (conjugate) chain 1: ARATDARGCRLRSQLVPVSALGLGHSSDELIRFRFCSGSCRRARSPHDLSLASLLGAGALRSPPGSRPISQPCCRPTRYEAVSFMDVNSTWRTVDHLSATACGCLG chain 2: ARATDARGCRLRSQLVPVSALGLGHSSDELIRFRFCSGSCRRARSPHDLSLASLLGAGALRSPPGSRPISQPCCRPTRYEAVSFMDVKSTWRTVDHLSATACGCLG | – | – | ++ | –
2 X 20 kDa Branched PEG NBN106-N95K: NBN106-N95K dimer with two branched 20 kDa PEGs at amino acids 1,95 (conjugate) ARATDARGCRLRSQLVPVSALGLGHSSDELIRFRFCSGSCRRARSPHDLSLASLLGAGALRSPPGSRPISQPCCRPTRYEAVSFMDVKSTWRTVDHLSATACGCLG | – | – | ++ | KIRA: ~EC50 [5, 6]: inactive; KIRA: ~Max Efficacy vs WT [5]: inactive
